Experiment: Conversion of cyclohexanone to caprolactone by E. coli clones expressing Rhodococcus erythropolis AN12 monooxygenases, GC-MS detection
Assay type: cell-based, Escherichia coli
Details: 500 mg/L cyclohexanone, 0.1 mM IPTG, overnight at 24° C., GC-MS of ethylacetate extract
Procedure: Following amplification, the gene fragments were cloned into pTrcHis-TOPO TA vectors with either an N-terminal tail or C-terminal tail, as provided by the vector sequence. These vectors were transformed into E. coli, with transformants grown in Luria-Bertani broth supplemented with ampicillin (100 ug/ml).
The chnB monooxygenase activity of each expressed enzyme from Example 9 was tested for activity according to its ability to convert cyclohexanone to caprolactone.
Clones containing the full length monooxygenase genes were transferred from LB agar plate to 5 mL of M63 minimal media (GIBCO) containing 10 mM glycerol, 50 ug/mL ampicillin, 0.1 mM IPTG, and 500 mg/L cyclohexanone. In addition to the clones containing full length monooxygenases, a plasmid without an insert and a “no cell” control were also assayed. The encoded monooxygenase sequences were expressed upon addition of IPTG to the culture media. The cultures were incubated overnight at room temperature (24° C.). Samples (1.25 mL) for analysis were taken immediately after inoculation and after overnight incubation; cells were removed by centrifugation (4° C., 13,000 rpm).
Caprolactone formed by the action of the cloned monooxygenase was extracted from the aqueous phase with ethylacetate (1.0 ml aqueous/0.5 mL ethylacetate). Caprolactone was detected by gas chromotagraphy mass spectrometry (GC-MS) analysis, using an Agilent 6890 Gas chromatograph system.
The analysis of the ethylacetate phase was performed by injecting 1 uL of the ethyl acetate phase into the GC. The inlet temperature was 115° C. and the column temperature profile was 50° C. for 4 min and ramped to 250° C. at 20° C./min, for a total run time of 14 min. The compounds were separated with an Hewlet Packard HP-5MS (5% phenyl Methyl Siloxane) column (30 m length, 250 um diameter, and 0.25 um film thickness). The mass spectrometer was run in Electron Ionization mode. The background mass spectra was subtracted from the spectra at the retention time of caprolactone (9.857 min). Presence of caprolactone was confirmed by comparison of the test reactions to an authentic standard obtained from Aldrich Chemical Company (St. Louis, Mo.).
Results of these assays are shown below in Table 7, in terms of the presence or absence of detectable caprolactone formation according to the activity of each expressed BV monooxygenase enzyme.

Molecule	Formation of Caprolactone (ability to convert cyclohexanone to caprolactone)
ORF 19: Rhodococcus erythropolis AN12 ORF 19 chnB monooxygenase, protein SEQ ID NO:44, expressed in E. coli (protein, Rhodococcus erythropolis AN12) MTTQKALTTVDAIVIGAGFGGIYAVHKLANELGLTTVGFDKADGPGGTWYWNRYPGALSDTESHVYRFSFDRDLLQDGTWKHTYTTQPEILEYLEDVVSRFDLRRHFHFGTAVESAVYLEDEQLWEVTTDTGEIYRATYVVNAVGLLSAINRPDLPGLETFEGETIHTAAWPEGKDLTGRRVGVIGTGSTGQQVITALAPTVEHLTVFVRTPQYSVPVGKRAVTDEQIDAVKADYENIWTQVKRSSVAFGFEESTVPAMSVSAEERLRVYEEAWEQGGGFRFMFGTFGDIATDEEANETAASFIRSKITAMIEDPETARKLTPTGLFARRPLCDDGYFQVFNRPNVEAVAIKENPIREITAKGVVTEDGVLHKLDVLVLATGFDAVDGNYRRMTISGRGGLNINDHWDGQPTSYLGIATANFPNWFMVLGPNGPFTNLPPSIETQVEWISDTIGYVERTGVRAIEPTPEAESAWTATCTDIANMTVFTKVDSWIFGANVPGKKPSVLFYLGGLGNYRAVLADVTEGGYQGFALKTADTVDA	Detected
ORF 15: Rhodococcus erythropolis AN12 ORF 15 chnB monooxygenase, protein SEQ ID NO:36, expressed in E. coli (protein, Rhodococcus erythropolis AN12) MTIVTDLDRDHLRSAVLRGNVPTMLAVLLELTADERWVAPRYQPTRSRGMDDNSTGGLPEEVQSEIRSALIDAVERWWTLDEPSRRTLDSSEVERILNFTCSETVPPDFAPMMAEIVNGPQIKPATAKCDERLHAIVIGAGIAGMLASVELSRAGIPHVILEKNDDVGGSWWENRYPGAGVDTPSHLYSISSFPRNWSTHFGKRDEVQGYLEDFAEANDIRRNVRFRHEVTRAEFEESKQSWRVSVQRPGEASETLEAPILISAVGLLNRPKIPHLPGIETFRGRLFHSAEWPSELDDPESLRGKRVGIVGTGASAMQIGPAIADRVGSLTIFQRSPQWIAPNDDYFTTIDDGVHWLMDNIPGYREWYRARLSWIFNDKVYSSLQVDPDWPEPSASINATNHGHRKFYERYLRDQLGDRTDLIEASLPDYPPFGKRMLLDNGWFTMLRKPDVTLVPHGVDALTPSGLVDTNGVEHQLDVIVMATGFHSVRVLYPMDIVGRSGRSTGEIWGEHDARAYLGITVPDFPNFFVMTGPNTGLGHGGSFITILECQVRYIMDALKLMQSENLGAMECRAEVNDRYNEAVDRQHAQMVWTHPAMENWYRNPDGRVVSVLPWRINDYWAMTYRVDPSDFRTEPARSESVPTPTARG	Not Detected

Reference: US20040267001A1, “Genes encoding baeyer-villiger monooxygenases” (priority 2001, published 2004)
